{"source": "patent US20030013651A1", "about": "(BARNES JEWISH HOSPITAL, published 2003)", "binders": {"B1": {"name": "GST-RANKL fusion protein (glutathione S-transferase fused N-terminally to murine RANKL residues 158-316) (ligand)", "chain": "KPEAQPFAHLTINAASIPSGSHKVTLSSWYHDRGWAKISNMTLSNGKLRVNQDGFYYLYANICFRHHETSGSVPTDYLQLMVYVVKTSIKIPSSHNLMKGGSTKNWSGNSEFHFYSINVGGFFKLRAGEEISIQVSNPSLLDPDQDATYFGAFKVQDID", "notes": "By size exclusion it is a polydisperse mixture of mono-trimeric (1 n) and oligomeric (2-100 n) units; also called oligomeric GST-RANKL; not shown: vector-encoded linker with protease site between GST and the SalI cloning site"}, "B2": {"name": "cleaved RANKL (murine RANKL residues 158-316 with GST removed by rhinovirus 3C protease) (ligand)", "chain": "B1 chain", "notes": "It migrated as a single trimeric species (1 n) in gel filtration; also called RANKL alone"}}, "biological_target": "T1, RANK (Receptor Activator of NF-kappa B) on primary murine cells (murine, UniProt O35305 31-625)", "T1 construct": "whole, on cells; Endogenous receptor on the cells", "T1 sequence (looked up)": "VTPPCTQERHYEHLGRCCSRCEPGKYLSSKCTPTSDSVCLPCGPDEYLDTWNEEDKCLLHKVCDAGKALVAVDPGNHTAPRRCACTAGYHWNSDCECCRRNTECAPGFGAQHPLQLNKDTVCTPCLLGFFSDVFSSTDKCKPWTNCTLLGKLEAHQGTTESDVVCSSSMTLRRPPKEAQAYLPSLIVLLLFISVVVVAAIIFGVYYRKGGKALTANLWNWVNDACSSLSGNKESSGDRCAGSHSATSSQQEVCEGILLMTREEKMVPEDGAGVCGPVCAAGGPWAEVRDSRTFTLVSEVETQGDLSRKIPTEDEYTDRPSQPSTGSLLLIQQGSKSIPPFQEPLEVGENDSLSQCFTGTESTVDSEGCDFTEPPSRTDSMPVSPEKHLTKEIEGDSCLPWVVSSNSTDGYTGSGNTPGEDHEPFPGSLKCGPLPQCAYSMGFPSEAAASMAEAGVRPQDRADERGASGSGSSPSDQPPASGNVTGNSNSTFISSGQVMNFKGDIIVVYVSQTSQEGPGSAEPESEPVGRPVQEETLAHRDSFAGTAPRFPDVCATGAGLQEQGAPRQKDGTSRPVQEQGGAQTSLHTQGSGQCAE", "assay": "confocal microscopy of primary murine osteoblasts exposed to 5 nM ligand, RANK stained with anti-RANK antibody", "procedure": "Primary murine osteoblasts were maintained in α-MEM containing 10% fetal bovine serum, and cultured in MEM containing 15% FBS, 50 μM ascorbic acid, and 10 mM β-glycerophosphate for differentiation. Cells were maintained at 37° C. in a humidified atmosphere containing 6% CO₂, with daily replenishment of media and cytokines. Primary murine osteoblasts were cultured on coverslips in A-MEM containing 10% fetal bovine serum and treated with GST-RANKL or cleaved RANKL for the indicated times. For phospholipid membrane staining, cells were incubated for 20 minutes with Vybrant Dil lipophilic carbocyanine membrane fluorescent stain (Molecular Probes). Cells were fixed in 4% paraformaldehyde, permeabilized with 0.1% Triton-X, blocked with 1% BSA/0.2% nonfat dry milk in PBS, and stained for RANK with a polyclonal anti-RANK antibody. Serial optical sections were obtained using a Radiance2100 laser scanning confocal microscope (BioRad). Microscope settings were calibrated to black level values using cells stained with an isotypic Ig control. GST-RANKL was cleaved as described in Example 12.\nPrimary osteoblasts in culture were exposed to 5 nM cleaved RANKL or GST-RANKL. […] Confocal microscopy was employed to localize RANK (green fluorescence) and the cell surface (red fluorescence). On the merged images, colocalization of RANK and the cell surface appears yellow (overlap of green and red fluorescence). […]"}
{"binder": "B1", "values": [{"measurement": "binding result", "result": "binds"}]}
{"binder": "B2", "values": [{"measurement": "binding result", "result": "binds"}]}
